Assay results from US20220380738.

T1: RecC protein (wild type, N-terminal 6xHis tag), P07648
T1 chain: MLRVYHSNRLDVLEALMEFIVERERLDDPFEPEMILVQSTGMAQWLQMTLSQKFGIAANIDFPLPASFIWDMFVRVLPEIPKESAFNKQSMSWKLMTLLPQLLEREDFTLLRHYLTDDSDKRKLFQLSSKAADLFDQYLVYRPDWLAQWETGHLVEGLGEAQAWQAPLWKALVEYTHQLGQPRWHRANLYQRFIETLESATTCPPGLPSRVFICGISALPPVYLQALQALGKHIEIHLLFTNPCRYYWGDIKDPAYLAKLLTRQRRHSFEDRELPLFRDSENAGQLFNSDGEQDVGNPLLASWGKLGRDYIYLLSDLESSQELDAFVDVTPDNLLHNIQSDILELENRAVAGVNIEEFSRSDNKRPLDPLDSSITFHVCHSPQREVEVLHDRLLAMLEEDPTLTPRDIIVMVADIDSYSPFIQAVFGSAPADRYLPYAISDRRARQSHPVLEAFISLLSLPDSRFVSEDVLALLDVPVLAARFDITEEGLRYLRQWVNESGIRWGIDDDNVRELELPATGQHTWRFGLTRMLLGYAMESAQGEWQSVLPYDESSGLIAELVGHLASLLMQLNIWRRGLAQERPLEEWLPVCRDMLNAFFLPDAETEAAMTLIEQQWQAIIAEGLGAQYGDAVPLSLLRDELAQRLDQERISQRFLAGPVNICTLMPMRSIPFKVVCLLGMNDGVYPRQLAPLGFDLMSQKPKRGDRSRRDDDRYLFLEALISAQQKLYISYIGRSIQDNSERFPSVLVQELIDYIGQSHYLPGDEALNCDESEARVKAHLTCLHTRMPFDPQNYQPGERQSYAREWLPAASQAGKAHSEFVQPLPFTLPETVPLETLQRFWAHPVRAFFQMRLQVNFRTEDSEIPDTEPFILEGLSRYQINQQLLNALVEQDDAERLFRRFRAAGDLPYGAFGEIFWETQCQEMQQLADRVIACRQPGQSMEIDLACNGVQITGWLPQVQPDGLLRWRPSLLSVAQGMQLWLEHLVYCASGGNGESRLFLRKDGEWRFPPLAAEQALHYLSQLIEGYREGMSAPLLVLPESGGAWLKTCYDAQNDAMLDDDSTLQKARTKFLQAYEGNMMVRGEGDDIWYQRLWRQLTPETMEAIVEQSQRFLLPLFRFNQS


Experiments:
[1] = test system: CbAgo (Clostridium butyricum); test: cleavage_in_vitro; settings: 5'-phosphate
[2] = target: T1, RecC protein (wild type, N-terminal …)

Molecule | activity ([1]; 16 min, 37 C) | activity ([1]; 4 min, 37 C) | also measured
AGTGCTGAGGTTGACTTAGTT / GTTTGCTGATGAACTAAGTCAACCTCAGCATCAACCTTGCGAGTCATTTCTTT [T2-A1 ; ss-phiX174] | 35 % cleaved | – | –
CGCAAGGTTAGTGCTGAGGTT / GTTTGCTGATGAACTAAGTCAACCTCAGCATCAACCTTGCGAGTCATTTCTTT [T1-C1 ; ss-phiX174] | 50 % cleaved | – | –
GTGCTGAGGTTGACTTAGTTC / GTTTGCTGATGAACTAAGTCAACCTCAGCATCAACCTTGCGAGTCATTTCTTT [T2-G1 ; ss-phiX174] | – | 80 % cleaved | –
TCGCAAGGTTAGTGCTGAGGT / GTTTGCTGATGAACTAAGTCAACCTCAGCATCAACCTTGCGAGTCATTTCTTT [T1 ; ss-phiX174] | – | 74 % cleaved | –
TGACTGCGATCCTGCAT / GCTAGATAGATTGACAGATTACTCAAGCAGGCATGCAGGATCGCAGTCAGATTTATGTGTCATATAGTACGTGATTCAAG / CTTGAATCACGTACTATATGACACATAAATCTGACTGCGATCCTGCATGCCTGCTTGAGTAATCTGTCAATCTATCTAGC [B12 ; 80 bp blunt substrate] | – | – | activity ([1]; with RecdeltaB-C helicase, 15 min, 2-fold more with added CbuRecQ): 25 % cleaved
RecB^exo- (full-length nuclease deficient RecB DNA helicase variant, E1020A/D1080A/K1082A, N-terminal 6xHis tag) (protein) MSDVAETLDPLRLPLQGERLIEASAGTGKTFTIAALYLRLLLGLGGSAAFPRPLTVEELLVVTFTEAATAELRGRIRSNIHELRIACLRETTDNPLYERLLEEIDDKAQAAQWLLLAERQMDEAAVFTIHGFCQRMLNLNAFESGMLFEQQLIEDESLLRYQACADFWRRHCYPLPREIAQVVFETWKGPQALLRDINRYLQGEAPVIKAPPPDDETLASRHAQIVARIDTVKQQWRDAVGELDALIESSGIDRRKFNRSNQAKWIDKISAWAEEETNSYQLPESLEKFSQRFLEDRTKAGGETPRHPLFEAIDQLLAEPLSIRDLVITRALAEIRETVAREKRRRGELGFDDMLSRLDSALRSESGEVLAAAIRTRFPVAMIDEFQDTDPQQYRIFRRIWHHQPETALLLIGDPKQAIYAFRGADIFTYMKARSEVHAHYTLDTNWRSAPGMVNSVNKLFSQTDDAFMFREIPFIPVKSAGKNQALRFVFKGETQPAMKMWLMEGESCGVGDYQSTMAQVCAAQIRDWLQAGQRGEALLMNGDDARPVRASDISVLVRSRQEAAQVRDALTLLEIPSVYLSNRDSVFETLEAQEMLWLLQAVMTPERENTLRSALATSMMGLNALDIETLNNDEHAWDVVVEEFDGYRQIWRKRGVMPMLRALMSARNIAENLLATAGGERRLTDILHISELLQEAGTQLESEHALVRWLSQHILEPDSNASSQQMRLESDKHLVQIVTIHKSKGLEYPLVWLPFITNFRVQEQAFYHDRHSFEAVLDLNAAPESVDLAEAERLAEDLRLLYVALTRSVWHCSLGVAPLVRRRGDKKGDTDVHQSALGRLLQKGEPQDAAGLRTCIEALCDDDIAWQTAQTGDNQPWQVNDVSTAELNAKTLQRLPGDNWRVTSYSGLQQRGHGIAQDLMPRLDVDAAGVASVVEEPTLTPHQFPRGASPGTFLHSLFEDLDFTQPVDPNWVREKLELGGFESQWEPVLTEWITAVLQAPLNETGVSLSQLSARNKQVAMEFYLPISEPLIASQLDTLIRQFDPLSAGCPPLEFMQVRGMLKGFIDLVFRHEGRYYLLAYASNWLGEDSSAYTQQAMAAAMQAHRYDLQYQLYTLALHRYLRHRIADYDYEHHFGGVIYLFLRGVDKEHPQQGIYTTRPNAGLIALMDEMFAGMTLEEA | – | – | DNA unwinding activity (DpnI-based helicase assay, capillary electrophoresis) [2]: RecB^exo- alone is a weak DNA helicase, but its unwinding activity significantly increases after interaction with RecC protein
